Values quoted from earlier work in article PMC2833280.

Experiments:
Test in all cases: kinetics
[1] = biological target: Lys443 (UniProt position 443, TVNRPKLGVHE); conditions: enzyme-substrate complexes (kcat)
[2] = biological target: Lys443 (UniProt position 443, IVWRKKIGIHE); conditions: enzyme-ATP complex and free CMPr (kcat/Km)
[3] = biological target: Glu380 (UniProt position 380, TRWTGEFATHG)

Question: For “beta-Lactam synthetase (beta-LS) (Streptomyces clavuligerus (printed 'Streptomyces clavuligerous'))”, which pKa [1] is on record?
Answer: 8.07 ± 0.05

Question: What does the source list for “Carbapenam synthetase (CPS, CarA) (Pectobacterium carotovorum (printed 'Pectobacterium carotorova'; formerly Erwinia carotovora))”?
Answer: pKa [2]: 10.0 ± 0.1; pKa ([3]; enzyme-ATP complex and free CMPr (kcat/Km)): 7.8 ± 0.1; pKa ([3]; enzyme-substrate complexes (kcat)): 7.4 ± 0.1
